Laboratory results: the DeepSol protein solubility set

Assay: soluble on expression in E. coli; label from the status in PepcDB or PDB records

| Sequence | soluble on expression in E. coli |
| --- | --- |
| GHEIKDIREDTMHAEFNALRAQVAINDGNPDEAERLAKLALEELPPGWFYSRIVATSVLGEVLHCKGELTRSLALMQQTEQMARQHDVWHYALWSLIQQSEILFAQGFLQTAWETQEKAFQLINEQHLEQLPMHEFLVRIRAQLLWAWARLDEAEASARSGIEVLSSYQPQQQLQCLAMLIQCSLARGDLDNARSQLNRLENLLGNGKYHSDWISNANKVRVIYWQMTGDKAAAANWLRHTAKPEFANNHFLQGQWRNIARAQILLGEFEPAEIVLEELNENARSLRLMSDLNRNLLLLNQLYWQAGRKSDAQRVLLDALKLANRTGFISHFVIEGEAMAQQLRQLIQLNTLPELEQHRAQRILREINQHHGA | soluble |
| MAVNVYSTSVTSENLSRHDMLAWVNDSLHLNYTKIEQLCSGAAYCQFMDMLFPGCVHLRKVKFQAKLEHEYIHNFKVLQAAFKKMGVDKIIPVEKLVKGKFQDNFEFIQWFKKFFDANYDGKDYNPLLARQGQDVAPPPNPGDQIF | soluble |
| MAQVRQEIAREQEKAARLARNLAKYLSPQVWEMIFSGKKSVRLETQRKKLTVFFSDIRGFTELSEELEAEALTDLLNNYLNEMSKIALKYGGTIDKFVGDCVMVFFGDPSTQGAKKDAVAAVSMGIAMRKHMKVLRQQWRAQGITKPLEIRMGINTGYCTVGNFGADTRMDYTIIGREVNLASRLESASEAGEILISHETYSLIKDVIMCRDKGQIAVKGFSRPVQIYQVVDSRRDLGAAPSYVEHELPGFSMYLDTNNIQNYDKERVIQALQQAAER | not soluble |
| MAHHHHHHMGKLQAPCSPTVCGYPLPYPRSLSHNLFNVIQDTRRKGKTNTEQSELKNEGDPLTLSPIVPKVDTSPATESKGRRREEKPLAHEGQLLKHKLDVWRDLFLASAAQQLAASGHPRSRRDDAGNVFYSNISCYLKEGCIVKSEDTDLRTGPRDHLRVQGAYLSHLAPEAFANLHVTLDGNTFVLRNVQRTSPTIKQISEELCEERGIRLLPTAMQKKVAYLVSQVSTSTKERAGTISGKKGLATSKWKHTNSLQTCKHSLNMELPEVTYRSRVLSTIREGAYGSPFQKGCKM | not soluble |
| KKPDTLWVNKRVVKCPEEVAQQLAVEAGSDVFLLKRIRYVDEEAVSIEESWVPAHLIHDVDAIGISLYDYFRSQHIYPQRTRSRVSARMPDAEFQSHIQLDSKIPVLVIKQVALDQQQRPIEYSISHCR | not soluble |
| MIRFEQVSKAYLGGRQALQGVDFHLRPAEMAFLTGHSGAGKSTLLKLICGIERPSAGHIWFGGHDISRLKNREVPFLRRQIGMIFQDHHLLLDRTVYDNVAMPLIIAGASSEDIRRRVSAALDKVGLLDKAKNFPIQLSGGEQQRVGIARAVVNKPAVLLADEPTGNLDDALSEGILRLFEEFNRVGVTVLMATHDTSLIARRRYPILTLSQGRMSGAHHGE | not soluble |
| MSLKSDKDHSVNINARGSFNDRADEISDAEQYGNRLSLAYQGKFLEDTLGVAVGYAHLYQPYVASQFIGLRFNDANEDVNGDGVKEAISEGFELQQKGGDDTRDGYMAAIHWQPTDNFSVKGDLFHSKFTSENFARGFRVKSLKNGTISDAVVESGSMTGGTVSTDGTDNFAVFVVNDNDSKYSELTSGSFNVEWNNGGALTVAADVSYSKADGEFVNGGTRAVLYDDIGNEVRSAESVTYKLNGLSPADISFANDYTNTATLGLKEVGMWPYNQQNDLVAYKLDFNYALDMGFVSSVDFGVRYAEREFNAQRSQAGYGFEYGKNPSNQPVLALNGDMAKVVDFGGELSGYPSFLAIDFNKAIELVNAQLAATGQSPFTPTANWSNNWTMIQSGAVNEDVLAGYVQANLDFDIGDIKVTGNLGVRVVNTDQSSTGLQQVGYGLGEAITDELGVVSKDYIRNEVGKTYTDYLPSLNLTFHLTENDQLRFAAASVMSRPPINKLKSGMGSWYDDSATPGYKKYNAWGNTSPLLDPFYADQYDLSYEHFFEESEGAVVVALFYKDIKSFINDFTIQPFDFEANGFIVPDTIIDNGVEFPVIKNEGQYQTAINNDKGGYIRGIELGYTQIFDFLPSPLDGLGFTGSYSYSDSEVELTTDLSGSNLIMPLPGEGHHHHHH | not soluble |
| MGSDKIHHHHHHMMPNPLLDIRIGTMVRANLEDPAAYVRQILPLGFESIQPFFWQTLGGKDLPRLAGEIREAIGDADVVVSSLGVFGNPLESGEVDRGVLAAWETVIDNAHLFGASMVSGFTGRLRGKKLTDSLPRFREVWGPLAKRAADKGVRIAFENCAMDGNWAVGDWNIAHNPDAWELMFNELPDDNLGLEWEPCHQLVYLIDPIPQIRKWAPRIFHVHGKDATVRWDVIREHGVFGRLPFVQMRTPGFGDSDWTRVISELRLAGYKGAIDIEGWHDPVYRDDLEITGQARALEYLKQCRGGASYLQNPT | not soluble |
| MGSDKIHHHHHHRNGKTYTQPLTGQATDKIGEQIRELFNIDINPNGPAVKANNYVSTYMKRLYKQLENYEHGENHNEEEVNAWLSADRIVSHMAQEVSHRLDDGSYSIRFAKEHVPAKEGQSIVRAQLRIHIQGIVSPVFFYIEDTNLPGDTVLVSSDDPTVVTDVTTMVDRWSHLQLSTLPIVTARASTNDELKIEAFLVIALKDEDAGPPKKRSR | not soluble |
| MACKNPKKFFPIRKSPVLRDGAFKGKLVLVTGGGTGIGKAIATTFAHLRATVVIAARRMEKLEQTARDITKITGGTCEPFQMDIKDPGMVSDAFDKIDMKFGKVPEILVNNAAGNFIMATELLSSNAYGTIIDIVLKGTFNVTTELGKRCIQNKTGASITSITAGYARAGAPFIVPSAVSKAGVETMTKSLATEWSKYGLRFNAVSPGPIPTKGAWGRLNSGEMGDIAEKMKFLNPEGRVGSPEEVANLVAFISSDHMSFLNGAIIDLDGGQQHFNHGSHMGDFLHSWDHKNWEDAENLIRGRTGKEKA | not soluble |
| MNSEIFRIFRKKYSEEIRNPPMNATTLPEALKLMQYIGDAIGTIRDPQELFRTVTDKLRLLFAFDSAVIITIDRERREASVFFEMLRFELPEQLRHQTRSIAGTWLEGHLDDRTVTVASIARDIPSFGADGAPLLWTLHELGMRQIVLSPLRSGGRVIGFLSFVSAEEKLWSDGDKSLLSGVSSSIAIAVSNALAYEELRQRE | not soluble |
| MAHHHHHHMYGDKGPPKGYSVPRFDTNASKRCQTCSSTVHWTFECPLKNSATLSAKKSAATTVKLSPSQMLRYGIKQKSANFVSEPTEREVFDAELRELRSVLTAEVRQELKAKKSAAHKSGNDCKKHEAPLPSAAPKKEPPSDSVTMKTERTEEEE | soluble |
| QVQLQQSGPGLVKPSQTLSLTCAISGDSVSSNSAAWNWIRQSPSRGLEWLGRTYYRSKWFNDYAVSVQSRITINPDTSKNQFSLQLNSVTPEDTAVYYCARGIVFSYAMDVWGQGTTVTVSSASTKGPSVFPLAPSSKSTSGGTAALGCLVKDYFPEPVTVSWNSGALTSGVHTFPAVLQSSGLYSLSSVVTVPSSSLGTQTYICNVNHKPSNTKVDKKVEPKSCAADEVDHHHHHH | soluble |
| MAPRDIRPGAEYGDIIEEAIVTCKVFLIVFSETSQISRWVRSELNIGFSSNKPIIPFRIDPTDLKGSMKLMLNDKHWLNAYPNPEEKFSELAAVILDLLQHPAVDTISPPGFQPASNVASADGSNAGAQGLFGKLLNQLFVKRRVKVTSDHAAEIFLNGERKGKLDAYETGNYSVSEDFYQLEVYSCEYGKKVKCEYSGSFSNSSTVIISVDMATAEKQYLMKAKNITSGQINDLGIIFLDEGKFEDAQECFLKAASMGEAAAAYNLGMMYHFGKGVEIDYDVAREYYEEAVKSDYPLALNNLGSIYYNGHGVRKDIAKSFPYFCRAAERGVESAQFTVATMLFYGQGVAVDKAKAKKWFQKAAAQGCKDSQNYLNSWVDD | not soluble |
| MNLNTPVEIPSGFTPISHAQQLLIMGSCFAENIGTLLAENKFRIDINPFGILYNPRSISMALREIISQKQYKASDLFLHRECWHSPMHHGSFSAATLADTLRNIQSRVEQAHKELKQLDRLMLTFGTAYVYEQKETGKVVANCHKLPEKNFIRRRLEIDEIVEDYTLLLDELISLNPQLKILFTVSPIRHIRDGMHANQLSKSVLLLAIDRLMQRYPQVTCYFPSYEIVLDELRDYRFYADDMVHPSTLTVNYLWERFSETFFTPETQSLIKECET | soluble |
| MGSDKIHHHHHHMQKLASGEQLMKVNGDTVATQGQLAKLLPLQHIDPQSTDIIDHGAKPRRQLLDWLMFHVEPEFYFAWQYYSRALKQRNTLLKTRRNLSLADLEPWNKMLSDYGEILHSQRLSIVEQWNVYFQNDLSQLLPDLEIELEYSPGFHTEQGLMQDLLNQHQKDIERRYTEYGPHRADLRLKTPFGHADDVLSRGQKKLLIIALKLSQIAMLHASNKETVVLLDDLTAELDLTAQQRLIERLSQLGSQVFMTTLDHASVKKHLHDLSISYQLFSVESGQVSLAAS | not soluble |
| MATFVRNAWYVAALPEELSEKPLGRTILDTPLALYRQPDGVVAALLDICPHRFAPLSDGILVNGHLQCPYHGLEFDGGGQCVHNPHGNGARPASLNVRSFPVVERDALIWIWPGDPALADPGAIPDFGCRVDPAYRTVGGYGHVDCNYKLLVDNLMDLGHAQYVHRANAQTDAFDRLEREVIVGDGEIQALMKIPGGTPSVLMAKFLRGANTPVDAWNDIRWNKVSAMLNFIAVAPEGTPKEQSIHSRGTHILTPETEASCHYFFGSSRNFGIDDPEMDGVLRSWQAQALVKEDKVVVEAIERRRAYVEANGIRPAMLSCDEAAVRVSREIEKLEQLEAARLEHHHHHH | soluble |
| MSNIAKTSEALQARIRELCGDQLREVGTHPGHWDDSAVRHIVRNPPAAYVVWLGHVPGEHPHVVQARWAVYVVANVLDGQRQNDPGIYQLVEKLSAGLHRCRIAPSGTFDVVLRQAAHLSCYRCKTCGPIRKAAWAWRFTACILKRRNRAITGEMMAQTKITLLAPHKHAGKQYQAGEVLSVDEQSAKFILNMGIGKPAEPVRKNPKLNTEDKQNAK | not soluble |
| MHHHHHHSSGRENLYFQGTYNISVVGLSGTEKEKGQCGIGKSCLCNRFVRPSADEFHLDHTSVLSTSDFGGRVVNNDHFLYWGEVSRSLEDCVECKMHIVEQTEFIDDQTFQPHRSTALQPYIKRAAATKLASAEKLMYFCTDQLGLEQDFEQKQMPDGKLLVDGFLLGIDVSRGMNRNFDDQLKFVSNLYNQLAKTKKPIVVVLTKCDEGVERYIRDAHTFALSKKNLQVVETSARSNVNVDLAFSTLVQLIDK | soluble |
| MGSDKIHHHHHHMTDEGALFYEHSRRALSEIQNAAALLDQRKINATGRLRMSVPVLFGQLFAAPLMVKFAQQHADLQLEISFNDRNVDLIEEGFDLCIRIGALPDTTQLVAKPIGEHRMLLCASPDYLNKAGPVEHIEDLDQHATIADPHFGQMQKWRLQKENDEPLFIKPKAKLLLNDLQAIKNAALAGAGIAWLPDWLIQNELQDGKLVQVLDAMSSTAFPIHLVWPTLPFMPLKTRLAIDYLAQHLPPELNK | not soluble |
| MGSDKIHHHHHHVSSDQVAVAGNAERLFNGAWYNLFEYGTTYANIGYRALQCQDDMMASDVVSRPKYGFNSSYQFNDVAIPSDGRTSFAWYLIYKTIDNCNTAISIKGDSEELRQAQGQALALRAFCYLHLVQHYQFTYLKDKDAPCVPIYTEPTTSGTKPKGKSTVAQVYQQIFDDLNLAQDYLTNYVRKGDGQKFKPNTDVVNGLMARAYLLTGQWGEAAKAAEAARKGYSLMTTTAEYEGFNNISNKEWIWGSPQTLSQSDASYNFYYLDATYVGAYSSFMADPHLMDTFVKGDIRLPLFQWMREGYLGYKKFHMRSDDTADLVLMRSAEMYLIEAEAKVRDGVALDQAVAPLNTLRTARGVGNYDVTGKTKEQVIDEILMERRRELWGEGFGITDVLRNQKAVERMALSEDMQKTEVDCWQEGGSFAKRNPLGHWFLNFPDGKAFSANSSYYLYAIPEKEINANPNL | not soluble |
